Experimental data as given in patent publication US20230357348A1 (AstraZeneca / MedImmune, published 2023).
Starred links: 1 amine or outer side, 2 acyl side, 3 side chain; linkers in the order of their positions; H or OH if unused. Non-standard residues stand in square brackets, D forms with d. Groups on a side chain read outwards from the residue. No end group written: not given here. *: point of attachment. C18 diacid = O=C(O)CCCCCCCCCCCCCCCCC(=O)*; γGlu = O=C(O)[C@H](CCC(=O)[*:2])N[*:1]; αMeF = C[C@](N)(Cc1ccccc1)C(=O)O; AEEA = NCCOCCOCC(=O)O; Aib = CC(C)(N)C(=O)O

B1: Peptide 17 (peptide)
peptide: H[Aib]HGS[αMeF]TSDVSK[αMeF]LDSK([AEEA-AEEA-γGlu-C18 diacid])AARD[αMeF]VESIANT-NH2
modifications: N-terminus assumed
SMILES: CC[C@H](C)[C@H](NC(=O)[C@H](CO)NC(=O)[C@H](CCC(=O)O)NC(=O)[C@@H](NC(=O)[C@](C)(Cc1ccccc1)NC(=O)[C@H](CC(=O)O)NC(=O)[C@H](CCCNC(=N)N)NC(=O)[C@H](C)NC(=O)[C@H](C)NC(=O)[C@H](CCCCNC(=O)COCCOCCNC(=O)COCCOCCNC(=O)CC[C@H](NC(=O)CCCCCCCCCCCCCCCCC(=O)O)C(=O)O)NC(=O)[C@H](CO)NC(=O)[C@H](CC(=O)O)NC(=O)[C@H](CC(C)C)NC(=O)[C@](C)(Cc1ccccc1)NC(=O)[C@H](CCCCN)NC(=O)[C@H](CO)NC(=O)[C@@H](NC(=O)[C@H](CC(=O)O)NC(=O)[C@H](CO)NC(=O)[C@@H](NC(=O)[C@](C)(Cc1ccccc1)NC(=O)[C@H](CO)NC(=O)CNC(=O)[C@H](Cc1c[nH]cn1)NC(=O)C(C)(C)NC(=O)[C@@H](N)Cc1c[nH]cn1)[C@@H](C)O)C(C)C)C(C)C)C(=O)N[C@@H](C)C(=O)N[C@@H](CC(N)=O)C(=O)N[C@H](C(N)=O)[C@@H](C)O
B2: Peptide 15 (peptide)
peptide: H[Aib]HGS[αMeF]TSDVSK[αMeF]LDSK([AEEA-AEEA-γGlu-C18 diacid])AARD[αMeF]VE[Aib]IANT-NH2
modifications: N-terminus assumed
SMILES: CC[C@H](C)[C@H](NC(=O)C(C)(C)NC(=O)[C@H](CCC(=O)O)NC(=O)[C@@H](NC(=O)[C@](C)(Cc1ccccc1)NC(=O)[C@H](CC(=O)O)NC(=O)[C@H](CCCNC(=N)N)NC(=O)[C@H](C)NC(=O)[C@H](C)NC(=O)[C@H](CCCCNC(=O)COCCOCCNC(=O)COCCOCCNC(=O)CC[C@H](NC(=O)CCCCCCCCCCCCCCCCC(=O)O)C(=O)O)NC(=O)[C@H](CO)NC(=O)[C@H](CC(=O)O)NC(=O)[C@H](CC(C)C)NC(=O)[C@](C)(Cc1ccccc1)NC(=O)[C@H](CCCCN)NC(=O)[C@H](CO)NC(=O)[C@@H](NC(=O)[C@H](CC(=O)O)NC(=O)[C@H](CO)NC(=O)[C@@H](NC(=O)[C@](C)(Cc1ccccc1)NC(=O)[C@H](CO)NC(=O)CNC(=O)[C@H](Cc1c[nH]cn1)NC(=O)C(C)(C)NC(=O)[C@@H](N)Cc1c[nH]cn1)[C@@H](C)O)C(C)C)C(C)C)C(=O)N[C@@H](C)C(=O)N[C@@H](CC(N)=O)C(=O)N[C@H](C(N)=O)[C@@H](C)O
B3: Peptide 20 (peptide)
peptide: H[Aib]HGS[αMeF]TSDVSK[αMeF]LDSK([AEEA-AEEA-γGlu-γGlu-C18 diacid])AARD[αMeF]VE[Aib]IANT-NH2
modifications: N-terminus assumed
SMILES: CC[C@H](C)[C@H](NC(=O)C(C)(C)NC(=O)[C@H](CCC(=O)O)NC(=O)[C@@H](NC(=O)[C@](C)(Cc1ccccc1)NC(=O)[C@H](CC(=O)O)NC(=O)[C@H](CCCNC(=N)N)NC(=O)[C@H](C)NC(=O)[C@H](C)NC(=O)[C@H](CCCCNC(=O)COCCOCCNC(=O)COCCOCCNC(=O)CC[C@H](NC(=O)CC[C@H](NC(=O)CCCCCCCCCCCCCCCCC(=O)O)C(=O)O)C(=O)O)NC(=O)[C@H](CO)NC(=O)[C@H](CC(=O)O)NC(=O)[C@H](CC(C)C)NC(=O)[C@](C)(Cc1ccccc1)NC(=O)[C@H](CCCCN)NC(=O)[C@H](CO)NC(=O)[C@@H](NC(=O)[C@H](CC(=O)O)NC(=O)[C@H](CO)NC(=O)[C@@H](NC(=O)[C@](C)(Cc1ccccc1)NC(=O)[C@H](CO)NC(=O)CNC(=O)[C@H](Cc1c[nH]cn1)NC(=O)C(C)(C)NC(=O)[C@@H](N)Cc1c[nH]cn1)[C@@H](C)O)C(C)C)C(C)C)C(=O)N[C@@H](C)C(=O)N[C@@H](CC(N)=O)C(=O)N[C@H](C(N)=O)[C@@H](C)O
B4: Peptide 16 (peptide)
peptide: H[Aib]HGS[αMeF]TSDVSK[αMeF]LDSK([AEEA-AEEA-γGlu-C18 diacid])AARD[αMeF]IA[Aib]IANT-NH2
modifications: N-terminus assumed
SMILES: CC[C@H](C)[C@H](NC(=O)C(C)(C)NC(=O)[C@H](C)NC(=O)[C@@H](NC(=O)[C@](C)(Cc1ccccc1)NC(=O)[C@H](CC(=O)O)NC(=O)[C@H](CCCNC(=N)N)NC(=O)[C@H](C)NC(=O)[C@H](C)NC(=O)[C@H](CCCCNC(=O)COCCOCCNC(=O)COCCOCCNC(=O)CC[C@H](NC(=O)CCCCCCCCCCCCCCCCC(=O)O)C(=O)O)NC(=O)[C@H](CO)NC(=O)[C@H](CC(=O)O)NC(=O)[C@H](CC(C)C)NC(=O)[C@](C)(Cc1ccccc1)NC(=O)[C@H](CCCCN)NC(=O)[C@H](CO)NC(=O)[C@@H](NC(=O)[C@H](CC(=O)O)NC(=O)[C@H](CO)NC(=O)[C@@H](NC(=O)[C@](C)(Cc1ccccc1)NC(=O)[C@H](CO)NC(=O)CNC(=O)[C@H](Cc1c[nH]cn1)NC(=O)C(C)(C)NC(=O)[C@@H](N)Cc1c[nH]cn1)[C@@H](C)O)C(C)C)[C@@H](C)CC)C(=O)N[C@@H](C)C(=O)N[C@@H](CC(N)=O)C(=O)N[C@H](C(N)=O)[C@@H](C)O
B5: Peptide 19 (peptide)
peptide: H[Aib]HGS[αMeF]TSDVSK[αMeF]LDSK([AEEA-AEEA-γGlu-γGlu-C18 diacid])AARD[αMeF]VQ[Aib]IANT-NH2
modifications: N-terminus assumed
SMILES: CC[C@H](C)[C@H](NC(=O)C(C)(C)NC(=O)[C@H](CCC(N)=O)NC(=O)[C@@H](NC(=O)[C@](C)(Cc1ccccc1)NC(=O)[C@H](CC(=O)O)NC(=O)[C@H](CCCNC(=N)N)NC(=O)[C@H](C)NC(=O)[C@H](C)NC(=O)[C@H](CCCCNC(=O)COCCOCCNC(=O)COCCOCCNC(=O)CC[C@H](NC(=O)CC[C@H](NC(=O)CCCCCCCCCCCCCCCCC(=O)O)C(=O)O)C(=O)O)NC(=O)[C@H](CO)NC(=O)[C@H](CC(=O)O)NC(=O)[C@H](CC(C)C)NC(=O)[C@](C)(Cc1ccccc1)NC(=O)[C@H](CCCCN)NC(=O)[C@H](CO)NC(=O)[C@@H](NC(=O)[C@H](CC(=O)O)NC(=O)[C@H](CO)NC(=O)[C@@H](NC(=O)[C@](C)(Cc1ccccc1)NC(=O)[C@H](CO)NC(=O)CNC(=O)[C@H](Cc1c[nH]cn1)NC(=O)C(C)(C)NC(=O)[C@@H](N)Cc1c[nH]cn1)[C@@H](C)O)C(C)C)C(C)C)C(=O)N[C@@H](C)C(=O)N[C@@H](CC(N)=O)C(=O)N[C@H](C(N)=O)[C@@H](C)O
B6: Peptide 1 (peptide)
peptide: HSQGS[αMeF]TSDVSK[Aib]LDSK([AEEA-AEEA-γGlu-C18 diacid])AAQD[αMeF]VQ[Aib]IAN-NH2
modifications: N-terminus assumed
SMILES: CC[C@H](C)[C@H](NC(=O)C(C)(C)NC(=O)[C@H](CCC(N)=O)NC(=O)[C@@H](NC(=O)[C@](C)(Cc1ccccc1)NC(=O)[C@H](CC(=O)O)NC(=O)[C@H](CCC(N)=O)NC(=O)[C@H](C)NC(=O)[C@H](C)NC(=O)[C@H](CCCCNC(=O)COCCOCCNC(=O)COCCOCCNC(=O)CC[C@H](NC(=O)CCCCCCCCCCCCCCCCC(=O)O)C(=O)O)NC(=O)[C@H](CO)NC(=O)[C@H](CC(=O)O)NC(=O)[C@H](CC(C)C)NC(=O)C(C)(C)NC(=O)[C@H](CCCCN)NC(=O)[C@H](CO)NC(=O)[C@@H](NC(=O)[C@H](CC(=O)O)NC(=O)[C@H](CO)NC(=O)[C@@H](NC(=O)[C@](C)(Cc1ccccc1)NC(=O)[C@H](CO)NC(=O)CNC(=O)[C@H](CCC(N)=O)NC(=O)[C@H](CO)NC(=O)[C@@H](N)Cc1c[nH]cn1)[C@@H](C)O)C(C)C)C(C)C)C(=O)N[C@@H](C)C(=O)N[C@@H](CC(N)=O)C(N)=O
B7: Peptide 18 (peptide)
peptide: H[Aib]HGS[αMeF]TSDVSK[αMeF]LDSK([AEEA-AEEA-γGlu-C18 diacid])AARD[αMeF]VQSIANT-NH2
modifications: N-terminus assumed
SMILES: CC[C@H](C)[C@H](NC(=O)[C@H](CO)NC(=O)[C@H](CCC(N)=O)NC(=O)[C@@H](NC(=O)[C@](C)(Cc1ccccc1)NC(=O)[C@H](CC(=O)O)NC(=O)[C@H](CCCNC(=N)N)NC(=O)[C@H](C)NC(=O)[C@H](C)NC(=O)[C@H](CCCCNC(=O)COCCOCCNC(=O)COCCOCCNC(=O)CC[C@H](NC(=O)CCCCCCCCCCCCCCCCC(=O)O)C(=O)O)NC(=O)[C@H](CO)NC(=O)[C@H](CC(=O)O)NC(=O)[C@H](CC(C)C)NC(=O)[C@](C)(Cc1ccccc1)NC(=O)[C@H](CCCCN)NC(=O)[C@H](CO)NC(=O)[C@@H](NC(=O)[C@H](CC(=O)O)NC(=O)[C@H](CO)NC(=O)[C@@H](NC(=O)[C@](C)(Cc1ccccc1)NC(=O)[C@H](CO)NC(=O)CNC(=O)[C@H](Cc1c[nH]cn1)NC(=O)C(C)(C)NC(=O)[C@@H](N)Cc1c[nH]cn1)[C@@H](C)O)C(C)C)C(C)C)C(=O)N[C@@H](C)C(=O)N[C@@H](CC(N)=O)C(=O)N[C@H](C(N)=O)[C@@H](C)O
B8: Peptide 21 (peptide)
peptide: H[Aib]HGS[αMeF]TSDVSK[αMeF]LDSK([γGlu-C18 diacid])AAQD[αMeF]VESIANT-NH2
modifications: N-terminus assumed
SMILES: CC[C@H](C)[C@H](NC(=O)[C@H](CO)NC(=O)[C@H](CCC(=O)O)NC(=O)[C@@H](NC(=O)[C@](C)(Cc1ccccc1)NC(=O)[C@H](CC(=O)O)NC(=O)[C@H](CCC(N)=O)NC(=O)[C@H](C)NC(=O)[C@H](C)NC(=O)[C@H](CCCCNC(=O)CC[C@H](NC(=O)CCCCCCCCCCCCCCCCC(=O)O)C(=O)O)NC(=O)[C@H](CO)NC(=O)[C@H](CC(=O)O)NC(=O)[C@H](CC(C)C)NC(=O)[C@](C)(Cc1ccccc1)NC(=O)[C@H](CCCCN)NC(=O)[C@H](CO)NC(=O)[C@@H](NC(=O)[C@H](CC(=O)O)NC(=O)[C@H](CO)NC(=O)[C@@H](NC(=O)[C@](C)(Cc1ccccc1)NC(=O)[C@H](CO)NC(=O)CNC(=O)[C@H](Cc1c[nH]cn1)NC(=O)C(C)(C)NC(=O)[C@@H](N)Cc1c[nH]cn1)[C@@H](C)O)C(C)C)C(C)C)C(=O)N[C@@H](C)C(=O)N[C@@H](CC(N)=O)C(=O)N[C@H](C(N)=O)[C@@H](C)O

Experiments:
[1] = target: human GLP-1 receptor (hGLP-1R) (human, UniProt P43220 24-463); assay: cell-based or functional assay
[2] = target: human glucagon receptor (hGCGR) (human, UniProt P47871 26-477); assay: cell-based or functional assay
human glucagon receptor (hGCGR), sequence (P47871 26-477): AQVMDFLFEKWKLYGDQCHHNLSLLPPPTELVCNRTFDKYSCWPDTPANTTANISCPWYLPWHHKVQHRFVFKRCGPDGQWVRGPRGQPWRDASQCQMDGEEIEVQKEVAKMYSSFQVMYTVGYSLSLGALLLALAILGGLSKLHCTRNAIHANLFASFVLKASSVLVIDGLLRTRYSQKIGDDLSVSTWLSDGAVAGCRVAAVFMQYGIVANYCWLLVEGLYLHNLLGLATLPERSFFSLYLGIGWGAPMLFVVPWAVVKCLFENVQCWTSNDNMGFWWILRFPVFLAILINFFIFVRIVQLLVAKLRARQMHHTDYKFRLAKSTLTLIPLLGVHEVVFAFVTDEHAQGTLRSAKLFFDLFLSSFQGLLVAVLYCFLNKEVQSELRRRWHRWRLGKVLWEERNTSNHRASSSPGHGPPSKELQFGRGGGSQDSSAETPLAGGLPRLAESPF

| Binder | hGLP-1R EC50 (pM) [1] [pM] | hGluc-R EC50 (pM) [2] [pM] |
| --- | --- | --- |
| B1 | 45 | 135 |
| B2 | 33.1 | 61.4 |
| B3 | 152 | 136 |
| B4 | 33 | 105 |
| B5 | 38.3 | 133 |
| B6 | 3200 | > 27100 |
| B7 | 20.5 | 122 |
| B8 | 378 | 68.8 |
